# Reference: the supplement of paper PMC10567573
# B1: LARP4 (parent)
# chain: WTVANMEEIKKLTTDPDLILEVLR
# Variants of: B1
# Assay: protein stability index of a GFP-peptide fusion (GPS, HEK-293T) (PSI 1-6); higher = more stable
# Details: c terminus: a fixed tail appended
# 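Note: lentivirally expressed fusions sorted by FACS into six bins by GFP to DsRed ratio, PSI derived from sequencing read proportions per bin multiplied by bin number.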
row,Variant,protein stability index
1,HTVANMEEIKKLTTDPDLILEVLR,2.55
2,FTVANMEEIKKLTTDPDLILEVLR,2.74
3,PTVANMEEIKKLTTDPDLILEVLR,2.71
4,YTVANMEEIKKLTTDPDLILEVLR,2.01
5,RTVANMEEIKKLTTDPDLILEVLR,2.45
6,TTVANMEEIKKLTTDPDLILEVLR,2.32
7,VTVANMEEIKKLTTDPDLILEVLR,2.89
8,ITVANMEEIKKLTTDPDLILEVLR,2.25
9,ATVANMEEIKKLTTDPDLILEVLR,1.9
10,WTVANMEEIKPLTTDPDLILEVLR,2.46
11,WTVANMEEIKMLTTDPDLILEVLR,1.81
12,WTVANMEEIKQLTTDPDLILEVLR,2.58
13,WTVANMEEIKLLTTDPDLILEVLR,2.13
14,WTVANMEEIKWLTTDPDLILEVLR,2.68
15,WTVANMEEIKILTTDPDLILEVLR,2.02
16,WTVANMEEIKRLTTDPDLILEVLR,2.52
17,WTVANMEEIKNLTTDPDLILEVLR,2.81
18,WTVANMEEIKDLTTDPDLILEVLR,3.96
19,WTVANMEEIKFLTTDPDLILEVLR,2.85
20,WTVANMEEIKSLTTDPDLILEVLR,2.8
21,WTVANMCEIKKLTTDPDLILEVLR,1.58
22,WTVANMIEIKKLTTDPDLILEVLR,1.94
23,WTVANMMEIKKLTTDPDLILEVLR,1.2
24,WTVANMREIKKLTTDPDLILEVLR,1.44

row,Variant,protein stability index
1,WTVANMYEIKKLTTDPDLILEVLR,2.18
2,WTVANMVEIKKLTTDPDLILEVLR,1.93
3,WTVANMFEIKKLTTDPDLILEVLR,2.55
4,WTVANMNEIKKLTTDPDLILEVLR,2.56
5,WTVANMDEIKKLTTDPDLILEVLR,2.23
6,WTVAGMEEIKKLTTDPDLILEVLR,1.64
7,WTVAKMEEIKKLTTDPDLILEVLR,2.05
8,WTVATMEEIKKLTTDPDLILEVLR,1.65
9,WTVAFMEEIKKLTTDPDLILEVLR,1.98
10,WTVANMEEIKKLTTDPDLIEEVLR,3.68
11,WTVANMEEIKKLTTDPDLIPEVLR,3.02
12,WTVANMEEIKKLTTDPDLIGEVLR,2.01
13,WTVANMEEIKKLTTDPDLISEVLR,2.1
14,WTVANMEEIKKLTTDPDLIAEVLR,3.37
15,WTVANMEEIKKLTTDPDLIHEVLR,2.64
16,WTVANMEEIKKLTTDPDLIFEVLR,2.15
17,WTVANMEEIKKLTTDPDLIQEVLR,3.64
18,WTVANMEEIKKLTTDPDLIMEVLR,2.02
19,WTVANMEEIKKLTTDPDLGLEVLR,2.26
20,WTVANMEEIKKLTTDPDLWLEVLR,2.47
21,WTVANMEEIKKLTTDPDLNLEVLR,2.91
22,WTVANMEEIKKLTTDPDLTLEVLR,2.96
23,WTVANMEEIKKLTTDPDLFLEVLR,2.18
24,WTVANMEEIKKLTTDPDLKLEVLR,3.21

row,Variant,protein stability index
1,WTVANMEEIKKLTTDPDLYLEVLR,2.67
2,WTVANMEEIKKLTTDPDLPLEVLR,3.42
3,WTVANMEEIKKLTTDPDLRLEVLR,3.21
4,WTVANMEEIKKLTTDPLLILEVLR,1.52
5,WTVANMEEIKKLTTDPWLILEVLR,1.49
6,WTVANMEEIKKLTTDPSLILEVLR,2.02
7,WTVANMEEIKKLTTDPILILEVLR,1.25
8,WTVANMEEIKKLTTDPALILEVLR,2.09
9,WTVANMEEIKKLTTDPGLILEVLR,1.51
10,WTVANMEEIKKLTTDPNLILEVLR,1.93
11,WTVANMEEIKKLTTDPKLILEVLR,2.05
12,WTVANQEEIKKLTTDPDLILEVLR,2.25
13,WTVANYEEIKKLTTDPDLILEVLR,1.73
14,WTVANGEEIKKLTTDPDLILEVLR,1.59
15,WTVANKEEIKKLTTDPDLILEVLR,1.89
16,WTVANFEEIKKLTTDPDLILEVLR,1.69
17,WTVANVEEIKKLTTDPDLILEVLR,1.73
18,WTVANEEEIKKLTTDPDLILEVLR,2.67
19,WTVANPEEIKKLTTDPDLILEVLR,2.03
20,WTVANMEEIKKLTTRPDLILEVLR,1.4
21,WTVANMEEIKKLTTVPDLILEVLR,1.59
22,WTVANMEEIKKLTTQPDLILEVLR,2.1
23,WTVANMEEIKKLTTLPDLILEVLR,2.1
24,WTVANMEEIKKLTTTPDLILEVLR,2

row,Variant,protein stability index
1,WTVANMEEIKKLTTEPDLILEVLR,3.16
2,WTVANMEEIKKLTTWPDLILEVLR,1.89
3,WTVANMEWIKKLTTDPDLILEVLR,1.36
4,WTVANMEMIKKLTTDPDLILEVLR,1.47
5,WTVANMEYIKKLTTDPDLILEVLR,2.73
6,WTVANMESIKKLTTDPDLILEVLR,1.58
7,WTVANMEAIKKLTTDPDLILEVLR,1.5
8,WTVANMEQIKKLTTDPDLILEVLR,1.68
9,WTVANMEEIKKLTTDPDSILEVLR,3.05
10,WTVANMEEIKKLTTDPDRILEVLR,2.87
11,WTVANMEEIKKLTTDPDKILEVLR,2.8
12,WTVANMEEIKKLTTDPDNILEVLR,3.53
13,WTVANMEEIKKLTTDPDHILEVLR,2.6
14,WTVANMEEIKKLTTDPDVILEVLR,2.99
15,WTVANMEEIKKLTTDPDWILEVLR,2.54
16,WTVANMEEIKKLTTDPDAILEVLR,2.71
17,WTVANMEEIKKLTTDPDFILEVLR,1.92
18,WTVANMEEIKKLTTDPDEILEVLR,3.67
19,WTVANMEEIKKLTTDPDIILEVLR,2.5
20,WTVANMEEIKKLTTDTDLILEVLR,1.89
21,WTVANMEEIKKLTTDNDLILEVLR,1.93
22,WTVANMEEIKKLTTDADLILEVLR,1.55
